The text below walks through data of a protein production outcome set (Wang et al. 2014).

A short description of the data set: label from the status in PepcDB records.
“MELWLVRHGETLWNREGRLLGWTDLPLTAEGEAQARRLKGALPSLPAFSSDLLRARRTAELAGFSPRLYPELREIHFGALEGALWETLDPRYKEALLRFQGFHPPGGESLSAFQERVFRFLEGLKAPAVLFTHGGVVRAVLRALGEDGLVPPGSAVAVDWPRRVLVRLALDGEEATG”: the protein production result was “not failed”.

Turning to “MPPLRQTKTWVDRNGSAHVELSPTVPPQTPKRHMRIQSPMEISWSEAVREGGEHSARRCGDMAVSALAKPNPIIDDDPEGNPDVCMYTWIVECPGATAVLLWINGVFDHERIEESEMTRLEGSDLWILSLRMPSDWRASYTVNAWSGDGVAPWREAGDRMHIRKAAMSGGRPDSRAMGHIMDSSLVEGPDALPDCWVAASTSVKVVEETVAGEHFWFYEAPVKAPLLVLFDGQHWNNSMNLPAQVDAAIAIGLLPPVSLLMIDSVNTERRWDSVGVPGGQVDVLIDALLPHVRETYNVSARGEDTIVTGASFGGLASLWALALSDGEVGHAIAQSPSLWRFNVADALSAAEQWSSIHLQAGKYEGEMLRLSHQLAEDLSGDIREVRVRGVHGGHDWAWWRVHMLTELTRLLKTL”, the protein production entry is “failed”.

For “MSLAEVNPMSKPLVRWPINPLRTAVIVVDMQKVFCEPTGALYVKSTADIVQPIQKLLQAARAAQVMVIYLRHIVRGDGSDTGRMRDLYPNVDQILARHDPDVEVIEALAPQSDDVIVDKLFYSGFHNTDLDTVLRARDVDTIIVCGTVTNVCCETTIRDGVHREYKVIALSDANAAMDYPDVGFGAVSAADVQRISLTTIAYEFGEVTTTAEVIRRIESAYPHGREGHHHHHH”, the protein production entry is reported as “not failed”.

For the sequence “MLELDGSGAEPLRDGDPRWIGPIPLIGRLGSGGMGRVYLGVHEGRYAAVKQLLPSVVAEDEDFLRRFGHELDNLARLPGEATAPLLAGDREARPPWFATAYVPGLTLTEALEVHGGPLPAGALWLLLREAAKGLAAVHALDMVHRDLKPSNVMLTLEGLTLIDFGVARAAEQSRLTRTGMVVGTPAYMSPEQASGRRASSGAVDVFALGSVLAYAASGRPPFGDESGHAVLYRIVHEEPDLGPLRELDPELADVVASCLDKDHEGRPTAAELLETAERHGPYEPPLWPEALTERLTERAAFVTKLPERADLPEPEPEPERDPGPGPGSAVLGRRDPGRSDHRRRHRVLFAVVPVVVAAGATLAVQLLPYTFAPGDRADASPSSSAPVSSAPAASPAGPGKASRTATPDQDRSASPSRSPGEQGDRRGDADGGGGAAGGSQGDADAGGAGSGSGSGSGSAGDGGAGAGSGAGSGDGSGSDSGSGSGADSGSGAGSGSGSGSGSGSGDGGASGSGVFTLKNAKNGRCLTTAHADAPYDGDCTGDAATWTFRSRPDGTVWIINGLLGRCIYTAAIGHPVFSFPCGRTTGQEWRVGSGGTLKNAATGGCVTVSAMSGTGVRNEACEQSAAQRWTRS”, the protein production result is listed as “failed”.

Turning to “MTVVVERQISHPPEKLWRALTQPHLIEEWLMKNDFKPAVGHRFNISADWGGVLDCEVLAVEPNKTLSYTWNLAHQDPAFDLRSVVTFTLTPTPTGTHLRMEQSGFRPDQRRAYGGAKMGWPQFFEKLEQLLDRTDLEHHHHHH”, the protein production result was “not failed”.

Turning to “MYKLMIADDEPLIRRGIKQLIDLSSLQIGEIYEASTGEEALKVFEEFKPEIVLMDINMPKIDGLSVAKKIKSINPDTKIAIITGYNYFDYAQTAIKIGVEDYILKPISKSDVSEIIVKLVSSLQKERKDKEIEKVLEKITTVDTQDNIAKNNYKELIQNIIEESYTDSQFTLSVLSEKLDLSSGYLSIMFKKNFGIPFQDYLLQKRMEKAKLLLLTTELKNYEIAEQVGFEDVNYFITKFKKYYQITPKQYREMVLKNENE”, the protein production entry was “not failed”.

“MSEKMRRIVEAAGGIVWRWKAGSDIANDPAIASSKSAQEQLDSIEVCIVHRPKYDDWSWPKGKLEQNETHRHAAVREIGEETGSPVKLGPYLCEVEYPLSEEGKKTRHSHDCTADTKHTLYWMAQPISADDAEHLLDAFGPVHRADVGEINDIVWVSVREARKILSHSTDKDTLAVFVDRVQEGAATAQNLLIVRHAKAESRKSWKGTDANRPITPKGAAMAFALNRELACFNPTRLATSPWLRCQETLQVLSWQTERPMEHINTLTEDAFAEHPAVSWLAFREQITQTLNSRETTAICMHRPVIGGMYDHLRGLCARKQLAKQLIAKSPYMPTGTAMSLFIIDTPQGPSIIDIQKVSPIVY”: the protein production entry was “failed”.

For “MAHRTWGGRFGEGPDALAARFNASLAFDRALWREDLWQNRVHARMLHAVGLLSAEELEAILKGLDRIEEEIEAGTFPWREELEDVHMNLEARLTELVGPPGGKLHTARSRNDQVATDLRLYLRGAIDELLALLLALRRVLVREAEKHLDPLYVLPGYTHLQRAQPVLLAHWFLAYYEMLKRDAGRLEDAKERLNESPLGAAALAGTGFPIDRHFTARELGFKAPMRNSLDAVASRDFALEVLSALNIGMLHLSRMAEELILYSTEEFGFVEVPDAFATGSSIMPQKKNPDILELIRAKAGRVLGAFVGLSAVVKGLPLAYNKDLQEDKEPLLDALATYRDSLRLLAALLPGLKWRRERMWRAAEGGYTLATELADYLAEKGLPFREAHHVVGRLVRRLVEEGRALKDLTLEELQAHHPLFAEDALPLLRLETAIHRRRSYGGTAPEAVRERLEEAKKEVGLD”, the protein production result is on record as “not failed”.

For the sequence “MEPLTALAQSLGLAFASGISAYAAAAFVGLAGHLGWIGPLPGALGVLTDPWVFGTAGALALVEALAMLVPGIATAWEAIHTAIRPFAAAALAVLATWGEPRLAVVAALLGGALGLATHATKLGLRATIDTSPEPVTNAAATTGELGVVAALAWAIWAHPWIALAAALVLLTALLYVVRALWRTVARAIAALFSPPTAPGS”, the protein production result is “failed”.

With “DVTYDGHPVPGSPYTVEASLPPDPSKVKAHGPGLEGGLVGKPAEFTIDTKGAGTGGLGLTVEGPCEAKIECSDNGDGTCSVSYLPTKPGEYFVNILFEEVHIPGSPFKADIEMPFDPS”, the protein production result is “not failed”.

For “MHIPLWHSRVPSATLSRSHSVLLPLSLTAHSPKRARLVAMSTNPEIPQWFALTPRVWTTSVEPESVTCGLVAGEDHVLLIDTGSTPEQGHTLAMSAARMLGRPVDRIVVTHHHYDHSGGLPGITDAEVWMHEAALAHCPDLHVDHPVSLMAYVNLGGLGAEVIHPGPAHTDGDLIVIVRDEKITFVGDLVETAGEPQSDGTTDVRGWPRAIDSVITGTDGAGLYVPGHGQPIDATDVMNQRAQLAERIPTNIPLTDRHIPLP”, the protein production result is “failed”.

As for “MMNASSISSRFKDLFVTPSIVFDFDGTLAIGHGPVLAYALCVAPEGSKDFLERVRRELRRYDDGQSIYRDGYDIVAKLASELGIDDGTMSVAYGESRKLLGSDLAPVEHVRGIKDILSSLKGHARLVLATNAPENGVHDLLRQWGVADLFDQLHFVVGKPAGLISIISDLQLDGPVLAVGDIYEFDLSPAAQLGADTALVGATATISEAKVSMRGDSIADLPLLAWVSSRVSSS”, the protein production result is given as “failed”.

As to “MNTDLTLVIMAAGLGSRFGGDKQLASLGPSGEPMLVLSILSAIRSGFQRAVLVIRPELEAELTGILTQFLPANFEYHFCYQSLSDLPQDAKLADLSHRLKPWGTAHALWCARDWVKGPMAVINADDFYGDSAFASLAKGLTARPNDWMMVAYPIELTLSEHGGVNRGLCQVAQGQLRSVAEWLNIQAQDDGFVGEGPNGLAKLPLQSLVSMTCWGFSPSIFNVIKQQLTAFIEQQGQLPKSECYLPAVVQAAIEQGVPVYVDVASEPWLGVTYPQDTVWVKQKLMELLGDKTHLEHHHHHH”, the protein production result is given as “failed”.

As for “MSDHNNKGRQQDVKALPRRVDERLNLSRHKEVKPSRLHDEVHRIVYELEARQLELEMQQENMLQSKEEMECLLKRYVEHYDIAPHSYMTISREGSILEANLTAAKNLGQDRALLKGDLLEKFIADKDRPVFKAFLERVFRGQTNAFCEVKLFNNQASQARGSAEADRYETVIEERMVRFDAALSNDGEECYIYITVSDRGSQNELEGQNTFFTDRLKDDIADMPDSDKVDFNYQLFDSVIHTRIRLAALSYLYTVKQACFVEIRDKIKASDGSLSVHMRMLESAGYISCDKEFLARKPQTVYRITPLGHDAFLKYSDIVFSLIAKKQEAS”, the protein production entry is recorded as “failed”.

With “MDRPERSEVLSPEDFLQAMPIGKTASILDLGAGTGFLTIPAAKLVDNTVFALDLDAKMLELIESKAKEAGLANVETLEASMDDIPLEANSVDVVLASLVLHEADSLADVLREVSRVVKTGGYFASLEFDTKGTDLKGPPMEIQISAEKLKEELAGFGFEVVKNWQLDEGMYVSIAVKKLEHHHHHH”, the protein production entry is recorded as “not failed”.

Consider “MNTTPFPALSAETLLAVNTVGQWLAQNDFSGEQPYSSDCVVLAGNAVIPTIDAACRIAKAQGVPLLISGGIGHSTPFLYAVIARHPRYHTIRTSGRAEAAILADIANQFWHIPAEKIWLEDRSTNCGENARFSCALIRQAKENINTAIVVQDPTMQRRTIAAFRRVTNDDTDAPRWLSFPGFVPVLRHLNDGTRFANVEEGIWTVERYLSLIAGELPRLRDDETGYGPRGKDFIIHVDIPRDIENAWQVLQADTTLRSALGQRALRLEHHHHHH”, for which the protein production result is recorded as “not failed”.

Take “MSAELTRARQQLSQIRGYLRQGKVMPAAQAFQSALVIVLKSPLMRAEREEFERMFADAAHHLNNDAGLRALFPLKIEYLPGSEKELLDIIRELVTAVNNAAVTEAQEQLAALDARKAAGLEQGQAHLDAQEFDAAAAVFRQLSHEFKDDPQLRGEIGERFLKAGRYEEAFDYLAQALDLSPESIHLYNRIGIALRRLGRFETGEKYYLRALQYAGHDPNLLFNLGRLYVDWQRWDKVAKAAAAALRVNPAFDEARKMLEFAERKLQR”: the protein production entry is recorded as “failed”.

For “MFRKLAAECFGTFWLVFGGCGSAVLAAGFPELGIGFAGVALAFGLTVLTMAFAVGHISGGHFNPAVTIGLWAGGRFPAKEVVGYVIAQVVGGIVAAALLYLIASGKTGFDAAASGFASNGYGEHSPGGYSMLSALVVELVLSAGFLLVIHGATDKFAPAGFAPIAIGLALTLIHLISIPVTNTSVNPARSTAVAIFQGGWALEQLWFFWVVPIVGGIIGGLIYRTLLEKRD”, the protein production result was “not failed”.

With “MLLFEQPVDLEKNNEDDTNIKPFAISRHFLLKLLLCGIILIELLLYSKCPKPIDNGPRTIANRSNTYFNGTHDFKTLTILISIDGFHPRLIDAKYTPFLYNLHNLRSPYDMNITTAPYMIPSFPTQTFPNHWSMVTGKYPIEHGIVSNIFWDNFTSSEFRPNNLDARIWSNTADPIWQLLQTESQGEYKVATHMWPGSEVVYEDHGDVPRERMPFYFGKFNQWEKLQDKLAQIFRYIDMPQLKDRPELVISYIPNVDSYGHSFGYDLRDKRLQKLIGEVDGFFLDLIEGLQKRNLLKISNVMIVSDHGMSNVNANDGEHVVVWERVFPADAMSAFISHLYNEGPMMMVCLKNPRDKQWICDLIEAQLEKAYGDEISRKFHVILKEDFDPSWKYFQYDNRKHRYDDRVGDIWILADEYYAIVKEMGDVPIGIMGTHGYNFNNCSDMASIFIGMGPMFNNEVVPPFENIEVYNMLIKASALLGEEKTKKEKSLLQ”, the protein production result is “failed”.

As to “MLAFNLLRSAHMLNPALQVLAKDGSIADNTYQPIAEDGVIPAGDVVMTTAQLDQLTAIQGKKALYITVNDSPETHQFPLDQLDAIFIEFAGFNDGRGYSFAALLRRQGYQGELRAVGDIFKDVLNYLKRSGFDTFVIKEGKDIQEAAAGLNDFRQPYQASTAVPQADYQTGA”, the protein production result is listed as “failed”.
